Source: patent US20220396632A1 (VERSEAU THERAPEUTICS, published 2022)
Substitutions are numbered along the chain they refer to. Non-standard residues stand in square brackets, D forms with d. No end group written: not given here. *: point of attachment. Biotin = O=C1N[C@H]2[C@H](CS[C@H]2CCCCC(=O)*)N1; sY = N[C@@H](Cc1ccc(OS(=O)(=O)O)cc1)C(=O)O

T1: Human fibrinogen protein (ThermoFisher, RP-43142) (human, UniProt P02671 20-629; P02675 31-491; P02679 27-453, limits assumed, natural sulfotyrosines)
T1 construct: mature; Native dimer with 3 pairs of non-identical chains; also called gamma-fibrinogen; γ fibrinogen protein
T1 sequence (looked up) 1: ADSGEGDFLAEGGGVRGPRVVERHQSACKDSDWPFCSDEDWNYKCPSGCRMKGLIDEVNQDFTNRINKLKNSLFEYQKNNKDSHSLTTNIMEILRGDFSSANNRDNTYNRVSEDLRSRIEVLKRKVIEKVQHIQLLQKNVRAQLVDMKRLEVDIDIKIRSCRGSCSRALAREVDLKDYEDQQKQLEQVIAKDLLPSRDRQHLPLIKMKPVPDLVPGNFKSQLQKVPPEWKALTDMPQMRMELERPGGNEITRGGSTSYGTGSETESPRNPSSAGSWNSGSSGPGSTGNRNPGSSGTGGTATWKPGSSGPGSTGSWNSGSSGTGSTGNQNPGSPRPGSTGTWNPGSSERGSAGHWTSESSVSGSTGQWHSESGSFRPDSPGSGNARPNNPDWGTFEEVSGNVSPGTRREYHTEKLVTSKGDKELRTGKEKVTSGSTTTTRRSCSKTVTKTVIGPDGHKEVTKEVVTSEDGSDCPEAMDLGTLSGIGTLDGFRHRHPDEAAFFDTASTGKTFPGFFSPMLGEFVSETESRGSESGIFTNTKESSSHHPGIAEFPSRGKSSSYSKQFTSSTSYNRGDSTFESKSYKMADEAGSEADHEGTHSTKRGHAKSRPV
T1 sequence (looked up) 2: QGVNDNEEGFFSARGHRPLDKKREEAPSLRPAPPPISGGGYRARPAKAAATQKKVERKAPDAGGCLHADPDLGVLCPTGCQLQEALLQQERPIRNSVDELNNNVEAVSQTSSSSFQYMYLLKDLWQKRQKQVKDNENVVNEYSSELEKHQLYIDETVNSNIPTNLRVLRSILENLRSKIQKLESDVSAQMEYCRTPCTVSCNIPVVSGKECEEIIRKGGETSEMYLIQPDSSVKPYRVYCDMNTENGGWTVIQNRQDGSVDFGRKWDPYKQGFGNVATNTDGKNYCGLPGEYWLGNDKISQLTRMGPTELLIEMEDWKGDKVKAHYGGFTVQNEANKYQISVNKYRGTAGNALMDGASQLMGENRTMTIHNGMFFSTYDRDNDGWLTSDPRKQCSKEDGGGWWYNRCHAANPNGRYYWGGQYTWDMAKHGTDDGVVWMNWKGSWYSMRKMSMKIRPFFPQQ
T1 sequence (looked up) 3: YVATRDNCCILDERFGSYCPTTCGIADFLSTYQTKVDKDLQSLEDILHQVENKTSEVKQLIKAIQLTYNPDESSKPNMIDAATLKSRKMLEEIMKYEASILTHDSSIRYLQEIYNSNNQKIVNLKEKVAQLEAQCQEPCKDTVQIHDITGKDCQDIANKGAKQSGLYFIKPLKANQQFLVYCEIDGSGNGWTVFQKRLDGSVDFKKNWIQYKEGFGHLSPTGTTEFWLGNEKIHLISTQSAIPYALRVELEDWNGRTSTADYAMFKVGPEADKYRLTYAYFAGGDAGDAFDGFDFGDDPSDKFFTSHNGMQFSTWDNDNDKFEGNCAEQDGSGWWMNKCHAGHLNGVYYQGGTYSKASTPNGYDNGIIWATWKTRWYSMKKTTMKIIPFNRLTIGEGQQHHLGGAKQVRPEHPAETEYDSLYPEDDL

T2: Sulfotyr fibrinogen γ peptide (not fully specified; Y8 and Y12 sulfated (SO3); C-terminal biotin)
T2 construct: also called Fibrinogen gamma peptide; human sulfotyrosinylated fibrinogen peptide
T2 peptide: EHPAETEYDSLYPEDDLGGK

T3: SulfoTyr C4 peptide (not fully specified; Y4, Y7 and Y9 sulfated (SO3); C-terminal biotin)
T3 construct: also called C4 alpha chain peptide; human sulfotyrosinylated C4 peptide
T3 peptide: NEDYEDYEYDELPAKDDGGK

T4: Sulfotyrosine D6 biotin peptide (human)
T4 construct: also called D6 peptide
T4 peptide: ENSSFY[sY][sY]D[sY]LDEVAFGGK(Biotin)

T5: SulfoCCK biotin peptide (human)
T5 construct: also called sulfotyrosine CCK peptide
T5 peptide: SHRISDRD[sY]MGWMDFGGK(Biotin)

T6: Sulfotyrosine CCR2b biotin peptide (human)
T6 construct: also called CCR2b peptide
T6 peptide: TTFFD[sY]D[sY]GAPSHGGK(Biotin)

T7: Recombinant human PSGL-1(ECD)-hFc1 (R&D Systems, Cat. 3345-PS) (human, UniProt Q14242 42-305)
T7 construct: Bought; Gln42-Val295 counted on AAC50061; also called PSGL-1-Fc; PSGL-1-hFc1 chimera; not shown: human IgG1 Fc, Pro100-Lys330
T7 sequence: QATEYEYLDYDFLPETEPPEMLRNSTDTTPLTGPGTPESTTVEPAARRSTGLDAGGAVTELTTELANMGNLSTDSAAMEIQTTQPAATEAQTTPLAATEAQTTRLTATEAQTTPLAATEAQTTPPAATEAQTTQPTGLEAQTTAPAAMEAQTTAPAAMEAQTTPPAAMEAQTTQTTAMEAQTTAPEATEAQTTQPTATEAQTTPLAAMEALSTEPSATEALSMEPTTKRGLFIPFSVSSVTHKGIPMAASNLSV

T8: Biotin PSGL-1(42-62) peptide, unmodified (human, C-terminal Lys-biotin)
T8 construct: Residues 42-62 followed by GGGK-biotin; also called WT; wild-type
T8 peptide: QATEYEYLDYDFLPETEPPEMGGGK

T9: Scrambled Y42,52,63(SO3) PSGL-1(42-62) biotin peptide (sulfotyrosine at peptide positions 1, 11 and 22; C-terminal Lys-biotin)
T9 peptide: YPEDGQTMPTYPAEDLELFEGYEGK

T10: Biotin Y46,48,51(SO3) PSGL-1(42-62) peptide (human, sulfotyrosine at Y46, Y48 and Y51; C-terminal Lys-biotin)
T10 construct: also called fully sulfated N-terminal PSGL-1 peptide
T10 peptide: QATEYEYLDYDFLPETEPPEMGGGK

B1: 03B03 (antibody, IgG4, V domains shown)
VH: EVQLVQSGGGLVQPGGSLRLSCAATGFTVSRNYMTWVREAPGKGLEWVAGIYKSGTTSYTESVKGRFTISRDNSKNTLYLEMSRLRAEDTAVYYCAKSTSTWGQGTQVTVSS
VL: DIVMTQSPLSLPVTLGQPASISCRASQSPGYSDGNTYLNWFQQRPGQSPRRLIYKVSNRDPGVPDRFSGSGSGTDFTLKISRVEAEDVGVYYCMQATHWPSFGQGTRLEIK
B2: 03D01 (antibody, IgG4, V domains shown)
VH: B1 VH with T60I
VL: DVVMTQSPVSLPVTLGQPASISCRSSRNLLYSNGNTYLNWFHQRPGQSPRRLIYKVSNQDSGVPDRFSGSGSGTDFTLKISRVEAEDVGVYYCMQGTHWPTTFGQGTRLEIK
B3: 10B03 (antibody, IgG4, V domains shown)
VH: EVKLLESGGDLVQPGGSLRLSCAASGLTFSNYAMSWVRQAPGKGLEWVSAISGSGDNTYYADSVKGRFTISRDNSKNTLYLQMNSLRADDTAVYFCAKRDSWGQGTLVTVSS
VL: QAVLTQPPSASGTPGQRVTISCSGSTSNIGSRDVYWYQHLPGTAPKLVIYRNDQRPSGVPDRFSGSKSGTSASLAISGLRSEDDADYYCAVWDNSLRGRVFGGGTKLTVL
B4: 01A04 (antibody, IgG4, V domains shown)
VH: EVQLVQSGAEVKKPGASVKVSCKASGYTFTSYYIHWVRQAPGQGLEWMGIIRPSGGSTSYAQKFQGRVTMTRDTSTSTVYMELSSLRSEDTAMYYCARVGVGSFDYWGQGTLVTVSS
VL: DIQMTQSPSTLSASVGDRVTITCRASQSVSNWLAWYQQKPGKAPKLLIYKASSLESGVPSRFSGSGSGTEFTLTISSLQPDDFATYYCQWFRTFGPGTKVDIK
B5: 08C10 (antibody, IgG4, V domains shown)
VH: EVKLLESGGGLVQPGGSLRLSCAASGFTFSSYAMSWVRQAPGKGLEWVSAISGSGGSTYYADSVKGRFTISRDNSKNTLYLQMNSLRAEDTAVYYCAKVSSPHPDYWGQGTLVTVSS
VL: LPVLTQPSSLSASPGASASLTCTLRSGLNVGTYRMYWYQQRPGSPPRYLLRYKSNSDKQQGSGVPSRFSGSKDASANAGILLISGLQSEDEADYYCLIWHNSAWVFGGGTKLTVL

target: T11, Human complement C4 protein (Millipore Sigma, Cat. 204886) (human, UniProt P0C0L4 20-675; P0C0L4 680-1446; P0C0L4 1454-1744, limits assumed, natural sulfotyrosines); assay: ELISA, 50 nM mAb
T11 construct: mature
T11 sequence (P0C0L4 20-675 limits assumed, form in doubt, chain 1 of 3): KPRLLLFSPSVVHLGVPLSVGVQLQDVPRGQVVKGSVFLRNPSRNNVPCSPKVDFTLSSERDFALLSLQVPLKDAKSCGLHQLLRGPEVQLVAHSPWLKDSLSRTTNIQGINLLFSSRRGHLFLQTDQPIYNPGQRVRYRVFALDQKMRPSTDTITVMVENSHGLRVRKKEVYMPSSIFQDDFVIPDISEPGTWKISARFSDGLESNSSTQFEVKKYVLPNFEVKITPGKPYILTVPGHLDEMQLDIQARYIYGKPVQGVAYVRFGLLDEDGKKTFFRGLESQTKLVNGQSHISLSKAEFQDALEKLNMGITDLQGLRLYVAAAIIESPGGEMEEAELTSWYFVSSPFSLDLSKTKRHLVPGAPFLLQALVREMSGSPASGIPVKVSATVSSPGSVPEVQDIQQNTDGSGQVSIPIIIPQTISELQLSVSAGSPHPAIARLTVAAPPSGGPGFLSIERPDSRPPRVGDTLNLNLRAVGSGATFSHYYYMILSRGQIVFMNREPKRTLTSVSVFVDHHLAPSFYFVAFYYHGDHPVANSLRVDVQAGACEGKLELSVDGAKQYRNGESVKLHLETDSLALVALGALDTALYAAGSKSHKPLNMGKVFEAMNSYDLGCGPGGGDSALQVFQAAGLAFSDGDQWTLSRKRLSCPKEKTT
T11 sequence (P0C0L4 680-1446 limits assumed, form in doubt, chain 2 of 3): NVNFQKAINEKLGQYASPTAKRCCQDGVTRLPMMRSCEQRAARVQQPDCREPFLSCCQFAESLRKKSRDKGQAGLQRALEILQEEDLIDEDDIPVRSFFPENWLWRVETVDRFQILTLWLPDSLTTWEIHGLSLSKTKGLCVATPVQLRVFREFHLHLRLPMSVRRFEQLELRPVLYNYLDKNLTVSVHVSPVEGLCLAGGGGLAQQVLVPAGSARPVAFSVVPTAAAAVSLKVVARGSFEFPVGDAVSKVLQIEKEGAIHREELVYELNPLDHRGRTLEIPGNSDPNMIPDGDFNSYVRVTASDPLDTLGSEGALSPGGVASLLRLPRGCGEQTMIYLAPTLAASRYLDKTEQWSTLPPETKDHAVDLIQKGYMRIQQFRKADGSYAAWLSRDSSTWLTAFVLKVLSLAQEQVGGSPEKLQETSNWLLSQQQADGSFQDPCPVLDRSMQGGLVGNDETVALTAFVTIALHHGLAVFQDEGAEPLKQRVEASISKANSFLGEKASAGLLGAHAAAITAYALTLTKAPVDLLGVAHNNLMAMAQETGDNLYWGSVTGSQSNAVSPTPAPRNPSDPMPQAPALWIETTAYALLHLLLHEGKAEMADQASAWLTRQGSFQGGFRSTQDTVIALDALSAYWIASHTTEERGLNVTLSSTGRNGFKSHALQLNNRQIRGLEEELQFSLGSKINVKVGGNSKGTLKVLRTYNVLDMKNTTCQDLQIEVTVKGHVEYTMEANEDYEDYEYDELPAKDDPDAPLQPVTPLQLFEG
T11 sequence (P0C0L4 1454-1744 limits assumed, form in doubt, chain 3 of 3): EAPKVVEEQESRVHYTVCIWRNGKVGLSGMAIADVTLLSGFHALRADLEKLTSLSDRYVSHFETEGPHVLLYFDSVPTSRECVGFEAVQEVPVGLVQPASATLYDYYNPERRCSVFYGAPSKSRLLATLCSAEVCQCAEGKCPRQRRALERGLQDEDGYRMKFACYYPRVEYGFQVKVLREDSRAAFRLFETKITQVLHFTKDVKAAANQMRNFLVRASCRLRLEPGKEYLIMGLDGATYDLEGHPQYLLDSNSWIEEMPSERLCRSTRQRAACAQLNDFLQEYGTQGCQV
Procedure: (§1) Recombinant PSGL-1-hFc1 chimera protein consisting of PSGL-1's extracellular domain (ECD) served as a positive control. […] Primary antibody was added (25 ul per well) in duplicate at 50 nM in assay buffer (blocking buffer containing 0.05% Tween®20) into test and control (just blocked) wells and the plate incubated for 45 min at 37° C.

Row | binding normalized to PSGL-1 | Binder
1 | 0.94 | B1
2 | 1.07 | B2
3 | 1.16 | B3
4 | 0.87 | B4
5 | 1.22 | B5

target: T1, Human fibrinogen protein (ThermoFisher, …); assay: ELISA, 50 nM mAb
Procedure: as §1

Row | binding normalized to PSGL-1 | binding result | Binder
6 | 0.27 | – | B1
7 | -0.2 | no binding (tested: 50 nM) | B2
8 | 0.68 | – | B3
9 | 0.8 | – | B4
10 | 0.46 | – | B5

Target: T2, Sulfotyr fibrinogen γ peptide
Assay: ELISA, 50 nM mAb
Procedure: as §1

Row | binding normalized to PSGL-1 | Binder
11 | 1.01 | B1
12 | 1.17 | B2
13 | 1.18 | B3
14 | 0.16 | B4
15 | 1.18 | B5

Target: T3, SulfoTyr C4 peptide
Assay: ELISA, 50 nM mAb
Procedure: as §1

Row | binding normalized to PSGL-1 | Binder
16 | 1 | B1
17 | 1.13 | B2
18 | 1.08 | B3
19 | 0.24 | B4
20 | 1.14 | B5

Target: T4, Sulfotyrosine D6 biotin peptide
Assay: ELISA, 50 nM mAb
Procedure: as §1

Row | binding normalized to PSGL-1 | Binder
21 | 0.82 | B4

Target: T5, SulfoCCK biotin peptide
Assay: ELISA, 50 nM mAb
Procedure: as §1

Row | binding normalized to PSGL-1 | Binder
22 | 0.98 | B1
23 | 0.94 | B2
24 | 0.56 | B3
25 | 0.87 | B4
26 | 1.02 | B5

Target: T6, Sulfotyrosine CCR2b biotin peptide
Assay: ELISA, 50 nM mAb
Procedure: as §1

Row | binding normalized to PSGL-1 | Binder
27 | 0.89 | B1
28 | 0.94 | B2
29 | 0.98 | B3
30 | 0.08 | B4
31 | 1.27 | B5

target: T7, Recombinant human PSGL-1(ECD)-hFc1 (R&D …); assay: ELISA, 50 nM mAb
Procedure: as §1

Row | A450nm [A450nm] | Binder
32 | 2.18 | B3
33 | 2.3 | B5

target: T12, Cynomolgus PSGL-1(ECD)-hFc1 (cynomolgus macaque); assay: ELISA, 20 nM mAb on plate cyno PSGL-1(ECD)-Fc
T12 construct: also called Cyno PSGL1-Fc; Cyno PSGL-1(ECD)-Fc
Procedure: Antibody binding to plate-immobilized cyno PSGL-1(ECD) was determined either at one concentration (20 nM) or by generating full antibody binding curves (0.003-200 nM). A typical ELISA was performed by overnight coating at 4° C. with 3 ug/mL/25 ul per well of recombinant cyno PSGL-1(ECD) protein in PBS, pH 7.4, in high binding half-well plates (Corning Cat. #3690). […] Anti-PSGL-1 IgG in assay buffer (blocking buffer containing 0.05% tween 20) was added into test and control wells (20 nM/25 ul/well) and the plate incubated for 45 min at 37° C. […] The plate was incubated for 45 min at 37° C., and mAb bound to plate-immobilized target determined at A450 nm using HRP substrate (3,3′,5,5′-tetramethylbenzidine (TMB)). For each antibody, duplicate values were averaged and assay background subtracted.

Row | A450nm [A450 nm] | Binder
34 | 0.45 | B1
35 | 0.71 | B2
36 | 0.68 | B3
37 | 1.81 | B4
38 | 0.31 | B5

Target: T8, Biotin PSGL-1(42-62) peptide, unmodified
Assay: ELISA, immobilized biotin peptide
Procedure: (§2) A typical ELISA was performed by coating high binding half-well plates (Corning Cat. #3690) with 3 ug/mL/25 ul per well of biotinylated N-terminal PSGL-1 peptides, which incorporated residues 42 to 62 of the protein, in PBS, pH 7.4, overnight at 4° C. The peptide was unmodified or contained sulfated tyrosine at all 3 tyrosine positions (46, 48, and 51) or at one position (tyr51) (Table 7).
(§3) PSGL-1 protein or peptide served as a positive control. […] […] […] For each antibody, duplicate values were averaged and average assay background was subtracted.

Row | A450nm, 20 nM mAb [A450nm] | EC50 [nM] | Binder
39 | 2.21 | – | B1
40 | 2.52 | – | B2
41 | 2.45 | – | B4
42 | – | ~500 | B5

Target: T9, Scrambled Y42,52,63(SO3) PSGL-1(42-62) …
Assay: ELISA, immobilized biotin peptide
Procedure: as §2, §3

Row | A450nm, 20 nM mAb [A450nm] | binding result | Binder
43 | 0.04 | no binding (tested: 20 nM) | B1
44 | – | no binding (tested: 20 nM) | B5

Target: T10, Biotin Y46,48,51(SO3) PSGL-1(42-62) …
Assay: ELISA, immobilized biotin peptide
Procedure: as §2, §3

Row | A450nm, 20 nM mAb [A450nm] | EC50 [nM] | Binder
45 | 2.5 | – | B1
46 | 2.67 | – | B2
47 | 2.68 | – | B3
48 | 2.73 | – | B4
49 | 2.57 | 0.33 | B5
